# Assays:
# wildtype myofibers = assay: Laser injury FM 4-64 uptake, E coli versus HEK cell produced rANXA6; type: cell-based, mouse; settings: 13 μg/ml and 130 μg/ml; vs BSA control
# Experimental: Myofiber isolation, laser injury, and dye measurement. For recombinant myofibers studies, myofibers were isolated from wildtype mice. Myofibers were incubated in Ringer's media with 13 μg/ml or 130 μg/ml human recombinant annexin, E coli or HEK cell produced. Bovine serum albumin (BSA) was used as a negative control. FM 4-64 ([…]) was added to the myofibers just prior to imaging. Fibers were subjected to laser-induced damage at room temperature using the Nikon A1R-MP multiphoton microscope. Imaging was performed using a 25×1.1 NA objective directed by the NIS-Elements AR imaging software. FM 4-64 was excited using a 920 nm wavelength laser and emission wavelengths of 575 nm and 629 nm were collected, respectively. To induce laser damage on isolated myofibers, a diffraction limited spot (diameter approximately 410 nm) was created on the lateral membrane of the myofiber using a 920 nm wavelength laser at 10-15% laser power for 1 second. FM 4-64 area was measured using FIJI from a single slice near the middle of the z-stack. Myofiber quality control was based on a number of characteristics including using adherent myofibers with intact sarcomere structure. Myofibers appeared devoid of tears or ruptures induced during the isolation protocol. The region of the myofiber selected for damage was linear and not located on a nucleus or neuromuscular junction.
# Statistical analyses were performed with Prism (Graphpad, La Jolla, Calif.). Comparisons relied on ANOVA (1way ANOVA for 1 variable). P-values of less than or equal to 0.05 were considered significant. Error bars represent +/−standard error of the mean (SEM).
# wildtype mice = assay: Cardiotoxin injury, systemic retro-orbital recombinant annexin A6, Evan's blue dye uptake; type: in vivo, mouse; settings: vs vehicle; for decrease in Evan's blue dye uptake, fluorescence imaging of tibialis anterior: 1 mg/kg retro-orbital 2 hours before cardiotoxin, 3 hours post injury
# Experimental: Cardiotoxin Injury and analysis. […] Additionally, mice were injected intraperitoneally with Evans' blue dye at 5 μl/g body weight (E-2129; Sigma-Aldrich, St. Louis, Mo.) dissolved in phosphate-buffered saline at 10 mg/mL. […] Cardiotoxin injury was performed injecting 20 μl of a 10 μM cardiotoxin (discontinued, Sigma-Aldrich) solution in PBS in tibialis muscles in sedated animals (3% isoflurane, 0.8 l/min O2) 2 hours post pretreatment. Cardiotoxin was released down the midline of the muscle to induce a homogenous area of injury at the center of the muscle. 3 hours post cardiotoxin injection muscle was harvested and frozen in liquid nitrogen.
# Immunofluorescence microscopy. Sections (10 μm thick) from the center of frozen-embedded muscles were collected on the cryostat (chamber, −20° C.; sample, −15° C.; catalog number CM1950; Leica, Wetzlar, Germany) for immunostaining. Tissues were fixed with 4% paraformaldehyde for 10 minutes on ice. Block and permeabilization were with 0.1% Triton (catalog number X-100; Sigma-Aldrich), 10% fetal bovine serum, and PBS for 60 minutes. For dystrophin detection, anti-dystrophin (ab15277; Abcam, Cambridge, Mass.) was used at a dilution of 1:100 overnight at 4° C. Sections were PBS rinsed, incubated with secondary antibody goat anti rabbit (A11008, Invitrogen) for 1 hour, PBS rinsed, and mounted in vectashield with DAPI (H-1200, Vector Laboratories). Imaging was performed using a Zeiss Axio Observer A1 microscope (Zeiss, Oberkochen, Germany), using a 10× objective. ZEN software (Zeiss, Jena, Germany) was used for acquiring images. Fluorescence quantitation and muscle area were performed using FIJI (NIH). Surface plots were created in FIJI (NIH). Fluorescence volume was quantified using Imaris Software v9.1.2.
# Cardiotoxin Injury and analysis. […] Additionally, mice were injected with Evans' blue dye at 5 μl/g body weight (E-2129; Sigma-Aldrich, St. Louis, Mo.) dissolved in phosphate-buffered saline at 10 mg/mL cardiotoxin injury was performed injecting 20 μl of a 10 μM cardiotoxin solution in PBS in tibialis anterior or gastroc/soleus muscles in sedated animals (3% isoflurane, 0.8 l/min O2) 2 hours post pretreatment. Cardiotoxin was released down the midline of the muscle to induce a homogenous area of injury at the center of the muscle. 3 hours post cardiotoxin injection muscle was harvested.
# Evans blue dye uptake. Sections (10 μm thick) from the center of frozen-embedded muscles were collected on the cryostat (chamber, −20° C.; sample, −15° C.; catalog number CM1950; Leica, Wetzlar, Germany). Tissue sections were fixed with methanol for 2 minutes, rinsed and mounted with vectashield with DAPI (H-1200, Vector Laboratories). Imaging was performed using a Zeiss Axio Observer A1 microscope (Zeiss, Oberkochen, Germany), using a 10× objective. ZEN software (Zeiss, Jena, Germany) was used for acquiring images. Fluorescence quantitation, surface plots, and muscle area were performed using FIJI (NIH). For whole tissue dye quantification, whole tissue was dissected, finely minced, weighed, and incubated at 55° C. in 1 mL of formamide for 2 hours. Spectrophotometric absorbance was measured at 620 nm.
molecule,measurement,setting,value
"recombinant annexin A6: recombinant human annexin A6 protein with C-terminal HIS tag (5186-A6-050, R&D systems); mouse protein from Northwestern core in one cohort (protein, UniProt P08133 2-673, looked up, C-terminal His tag, recombinant human annexin A6 protein with C-terminal HIS tag (5186-A6-050, R&D systems); mouse protein from Northwestern core in one cohort) Annexin A6: AKPAQGAKYRGSIHDFPGFDPNQDAEALYTAMKGFGSDKEAILDIITSRSNRQRQEVCQSYKSLYGKDLIADLKYELTGKFERLIVGLMRPPAYCDAKEIKDAISGIGTDEKCLIEILASRTNEQMHQLVAAYKDAYERDLEADIIGDTSGHFQKMLVVLLQGTREEDDVVSEDLVQQDVQDLYEAGELKWGTDEAQFIYILGNRSKQHLRLVFDEYLKTTGKPIEASIRGELSGDFEKLMLAVVKCIRSTPEYFAERLFKAMKGLGTRDNTLIRIMVSRSELDMLDIREIFRTKYEKSLYSMIKNDTSGEYKKTLLKLSGGDDDAAGQFFPEAAQVAYQMWELSAVARVELKGTVRPANDFNPDADAKALRKAMKGLGTDEDTIIDIITHRSNVQRQQIRQTFKSHFGRDLMTDLKSEISGDLARLILGLMMPPAHYDAKQLKKAMEGAGTDEKALIEILATRTNAEIRAINEAYKEDYHKSLEDALSSDTSGHFRRILISLATGHREEGGENLDQAREDAQVAAEILEIADTPSGDKTSLETRFMTILCTRSYPHLRRVFQEFIKMTNYDVEHTIKKEMSGDVRDAFVAIVQSVKNKPLFFADKLYKSMKGAGTDEKTLTRIMVSRSEIDLLNIRREFIEKYDKSLHQAIEGDTSGDFLKALLALCGGED",FM 4-64 dye uptake after laser injury,wildtype myofibers,reduction
same,"decrease in Evan's blue dye uptake, fluorescence imaging of tibialis anterior",wildtype mice,38%
same,"decrease in Evan's blue dye uptake, fluorescence imaging of tibialis anterior",wildtype mice; listed as rANXA6,approximately 38%
same,"reduction in dye uptake, whole tissue spectroscopic analysis of gastrocnemius/soleus",wildtype mice; 1 mg/kg retro-orbital pretreatment,58%
same,"Evan's blue dye uptake, fluorescence imaging",wildtype mice; retro-orbital post-treatment immediately after cardiotoxin,significant decrease
same,"Evan's blue dye uptake, fluorescence imaging",wildtype mice; retro-orbital pretreatment 2 hours prior to cardiotoxin,significant decrease

# Source: patent publication US20220143136A1, “USE OF ANNEXINS IN PREVENTING AND TREATING MUSCLE MEMBRANE INJURY” (NORTHWESTERN UNIVERSITY, priority 2018, published 2022)
